Data reported in the supplement of paper PMC7877785.
± gives the uncertainty stated by the source.

Experiment: self-splicing fitness, log relative to wild type (ln ratio); higher = more splicing; Tetrahymena group I intron in knt gene, E. coli kanamycin selection, DiMSum; sequences stand for … in CUCUCU…GGAGGGAAAAGUUAUCAGGCAUGCACCUGGUAGCUAGUCUUUAAACCAAUAGAUUGCAUCGGUUUAAAAGGCAAGACCGUCAAAUUGCGGGAAAGGGGUCAACAGCCGUUCAGUACCAAGUCUCAGGGGAAACUUUGAGAUGGCCUUGCAAAGGGUAUGGUAAUAAGCUGACGGACAUGGUCCUAACCACGCAGCCAAGUCCUAAGUCAACAGAUCUUCUGUUGAUAUGGAUGCAGUUCACAGACUAAAUGUCGGUCGGGGAAGAUGUAUUCUUCUCAUAAGAUAUAGUCGGACCUCUCCUUAAUGGGAGCUAGCGGAUGAAGUGAUGCAACACUGGAGCCGCUGGGAACUAAUUUGUAUGCGAAAGUAUAUUGAUUAGUUUUGGAGUACUCGUGGUCG
Summary of the method: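 DiMSum derived fitness as the error-weighted combination of fold changes across replicates, kanamycin versus no kanamycin, normalised to wild type. E. coli BL21(DE3) held the library, which randomised all eight P1ex-region intron nucleotides within the knt kanamycin-resistance gene on pET-22b(+). Six replicate transformations grew overnight at 37°C or 30°C on LB agar with or without 25 μg/mL kanamycin, also containing 100 μg/mL carbenicillin, 50 μM IPTG and 0.2% rhamnose, and pooled colonies were amplicon-sequenced on an Illumina HiSeq 2500.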

Sequence | self-splicing fitness (ln) (30 °C) | self-splicing fitness (ln) (37 °C)
GACCAGCAAUAUUACGGCUC | -0.856 ± 0.13 | 0.658 ± 0.15
GACCAGCAAUAUUACGGGGC | -2.78 ± 0.18 | -2.14 ± 0.15
GACCAGCAAUAUUACGGUAA | 0.0402 ± 0.06 | -0.0565 ± 0.071
GACCAGCAAUAUUACGGUGA | -0.339 ± 0.057 | -0.154 ± 0.081
GACCAGCAAUAUUACGUAUU | -0.471 ± 0.049 | -0.139 ± 0.062
GACCAGCAAUAUUACGUCCU | -1.86 ± 0.1 | 0.317 ± 0.11
GACGAGCAAUAUUACGAAAA | – | -3.07 ± 0.37
GACGAGCAAUAUUACGACGA | -0.98 ± 0.11 | -1.07 ± 0.12
GACGAGCAAUAUUACGACGG | -1.82 ± 0.28 | –
GACGAGCAAUAUUACGAGGA | -2.28 ± 0.28 | -2.66 ± 0.36
GACGAGCAAUAUUACGAGUA | -3.81 ± 0.39 | -3.26 ± 0.37
GACGAGCAAUAUUACGAUGG | -3.7 ± 0.17 | -3 ± 0.2
GACGAGCAAUAUUACGCAUA | -1.6 ± 0.21 | -0.87 ± 0.17
GACGAGCAAUAUUACGCCAA | -3.23 ± 0.28 | -0.956 ± 0.3
GACGAGCAAUAUUACGCGAC | -2.09 ± 0.26 | -1.04 ± 0.27
GACGAGCAAUAUUACGCUCC | -2.9 ± 0.29 | -1.91 ± 0.34
GACGAGCAAUAUUACGCUGC | – | -2.49 ± 0.49
GACGAGCAAUAUUACGGAUU | – | -2.03 ± 0.19
GACGAGCAAUAUUACGGGCA | -1.58 ± 0.18 | -2.56 ± 0.29
GACGAGCAAUAUUACGGGUA | -3.66 ± 0.2 | -2.94 ± 0.2
GACGAGCAAUAUUACGGUCA | -2.22 ± 0.15 | -0.552 ± 0.15
GACGAGCAAUAUUACGGUUU | -2.28 ± 0.11 | -1.87 ± 0.14
GACGAGCAAUAUUACGUACA | -3.04 ± 0.27 | -2.26 ± 0.2
GACGAGCAAUAUUACGUAUC | – | -2.42 ± 0.35
GACGAGCAAUAUUACGUGAG | -2.7 ± 0.16 | -2.62 ± 0.19

Sequence | self-splicing fitness (ln) (30 °C) | self-splicing fitness (ln) (37 °C)
GACGAGCAAUAUUACGUGAU | -3.53 ± 0.17 | -2.6 ± 0.16
GACGAGCAAUAUUACGUGCG | -2.7 ± 0.17 | -0.259 ± 0.11
GACGAGCAAUAUUACGUGUC | – | -2.74 ± 0.28
GACGAGCAAUAUUACGUUCA | -1.67 ± 0.19 | -0.881 ± 0.16
GACUAGCAAUAUUACGACAA | -0.896 ± 0.063 | -0.0215 ± 0.069
GACUAGCAAUAUUACGACAC | -0.0525 ± 0.075 | -0.0737 ± 0.093
GACUAGCAAUAUUACGACCC | 0.42 ± 0.14 | 0.392 ± 0.18
GACUAGCAAUAUUACGAGUG | -0.94 ± 0.078 | -0.316 ± 0.098
GACUAGCAAUAUUACGAUUG | -2.2 ± 0.087 | -2.14 ± 0.15
GACUAGCAAUAUUACGCAGG | -3.04 ± 0.17 | -2.17 ± 0.12
GACUAGCAAUAUUACGCAUU | -2.42 ± 0.14 | -1.63 ± 0.13
GACUAGCAAUAUUACGCUAA | -1.08 ± 0.12 | -0.983 ± 0.13
GACUAGCAAUAUUACGCUCA | -0.407 ± 0.1 | -0.306 ± 0.11
GACUAGCAAUAUUACGCUUU | -2.59 ± 0.19 | -1.66 ± 0.16
GACUAGCAAUAUUACGGACA | -0.472 ± 0.1 | -0.0878 ± 0.11
GACUAGCAAUAUUACGGCCU | -1 ± 0.11 | -0.85 ± 0.16
GACUAGCAAUAUUACGGGCU | -2.18 ± 0.15 | -1.64 ± 0.15
GACUAGCAAUAUUACGGUCU | -3.36 ± 0.22 | -3.21 ± 0.33
GACUAGCAAUAUUACGGUUA | -0.116 ± 0.083 | 0.109 ± 0.085
GACUAGCAAUAUUACGUCCC | -1.82 ± 0.23 | -0.833 ± 0.22
GACUAGCAAUAUUACGUGAA | -0.567 ± 0.056 | -0.302 ± 0.083
GACUAGCAAUAUUACGUGCA | -0.898 ± 0.059 | -0.504 ± 0.068
GACUAGCAAUAUUACGUUUA | -1.05 ± 0.094 | -0.651 ± 0.11
GAGAAGCAAUAUUACGAAGA | -1.43 ± 0.28 | -1.67 ± 0.26
GAGAAGCAAUAUUACGACAC | -0.317 ± 0.15 | 0.578 ± 0.18

Sequence | self-splicing fitness (ln) (30 °C) | self-splicing fitness (ln) (37 °C)
GAGAAGCAAUAUUACGACGG | -3.47 ± 0.29 | -1.97 ± 0.23
GAGAAGCAAUAUUACGACUC | -2.38 ± 0.18 | -1.82 ± 0.23
GAGAAGCAAUAUUACGAGAG | -2.86 ± 0.23 | -1.91 ± 0.22
GAGAAGCAAUAUUACGAGCG | -1.15 ± 0.16 | -0.106 ± 0.18
GAGAAGCAAUAUUACGAGGC | -3.35 ± 0.21 | -1.78 ± 0.17
GAGAAGCAAUAUUACGCAAU | -3.12 ± 0.17 | -1.52 ± 0.14
GAGAAGCAAUAUUACGCACA | -0.725 ± 0.19 | 0.27 ± 0.25
GAGAAGCAAUAUUACGCAGA | -2.84 ± 0.17 | -1.8 ± 0.19
GAGAAGCAAUAUUACGCCAU | -2.68 ± 0.38 | -1.87 ± 0.35
GAGAAGCAAUAUUACGCCUA | -0.659 ± 0.15 | -1.03 ± 0.14
GAGAAGCAAUAUUACGCGAG | -1.75 ± 0.086 | -0.918 ± 0.078
GAGAAGCAAUAUUACGCGCA | -0.304 ± 0.11 | 0.342 ± 0.12
GAGAAGCAAUAUUACGGACG | -0.812 ± 0.12 | -0.528 ± 0.2
GAGAAGCAAUAUUACGUACA | -0.535 ± 0.066 | -0.692 ± 0.077
GAGAAGCAAUAUUACGUAGG | -3.2 ± 0.23 | -0.924 ± 0.15
GAGAAGCAAUAUUACGUUUC | -3.64 ± 0.32 | -3.08 ± 0.27
GAGCAGCAAUAUUACGAAUG | -3.81 ± 0.2 | -1.94 ± 0.14
GAGCAGCAAUAUUACGACAG | -3.25 ± 0.21 | -2.6 ± 0.27
GAGCAGCAAUAUUACGACGU | -0.383 ± 0.072 | -0.812 ± 0.079
GAGCAGCAAUAUUACGAGUA | -2.42 ± 0.34 | -1.92 ± 0.26
GAGCAGCAAUAUUACGAGUC | -1.91 ± 0.12 | -1.92 ± 0.17
GAGCAGCAAUAUUACGAUAC | -1.61 ± 0.12 | -1.45 ± 0.15
GAGCAGCAAUAUUACGCACC | -2.67 ± 0.39 | -1.82 ± 0.48
GAGCAGCAAUAUUACGCCCC | -2.24 ± 0.47 | –
GAGCAGCAAUAUUACGCCCU | -0.964 ± 0.31 | –

Sequence | self-splicing fitness (ln) (30 °C) | self-splicing fitness (ln) (37 °C)
GAGCAGCAAUAUUACGCCGC | -1.63 ± 0.22 | -2.43 ± 0.38
GAGCAGCAAUAUUACGCGAG | -2.38 ± 0.14 | -0.876 ± 0.12
GAGCAGCAAUAUUACGCGAU | -4.28 ± 0.33 | -0.0586 ± 0.21
GAGCAGCAAUAUUACGCUAC | – | -1.95 ± 0.33
GAGCAGCAAUAUUACGCUUU | -1.94 ± 0.18 | -2.5 ± 0.26
GAGCAGCAAUAUUACGGACU | -1.32 ± 0.082 | -0.127 ± 0.11
GAGCAGCAAUAUUACGGCGC | -0.751 ± 0.12 | 0.209 ± 0.17
GAGCAGCAAUAUUACGGGCG | -2.09 ± 0.14 | -0.811 ± 0.16
GAGCAGCAAUAUUACGGUUA | -0.804 ± 0.1 | -0.875 ± 0.1
GAGCAGCAAUAUUACGUACA | -1.06 ± 0.22 | -0.116 ± 0.17
GAGCAGCAAUAUUACGUAGU | -3.35 ± 0.19 | -1.01 ± 0.15
GAGCAGCAAUAUUACGUCAU | -2.38 ± 0.12 | -1.02 ± 0.13
GAGCAGCAAUAUUACGUCUA | 0.0729 ± 0.12 | 0.0653 ± 0.13
GAGCAGCAAUAUUACGUGCG | -1.65 ± 0.12 | -1.25 ± 0.11
GAGCAGCAAUAUUACGUGGA | -3.09 ± 0.22 | -1.69 ± 0.15
GAGCAGCAAUAUUACGUGGU | -3.66 ± 0.25 | -2.25 ± 0.23
GAGCAGCAAUAUUACGUGUU | -3.3 ± 0.33 | -2.81 ± 0.22
GAGCAGCAAUAUUACGUUAA | -3.53 ± 0.27 | -0.69 ± 0.13
GAGCAGCAAUAUUACGUUAG | -2.57 ± 0.16 | -1.93 ± 0.19
GAGGAGCAAUAUUACGAACG | -2.65 ± 0.22 | -1.54 ± 0.25
GAGGAGCAAUAUUACGACAG | -1.38 ± 0.36 | -1.5 ± 0.39
GAGGAGCAAUAUUACGACUC | -3.04 ± 0.27 | -2.25 ± 0.31
GAGGAGCAAUAUUACGAGAU | -2.78 ± 0.32 | –
